Source: PMC12698673 (Communications Biology, 2025)
Substitutions are numbered along the chain they refer to. Numbers in names are those of the source. Ends that are not written are not given here. * marks the point of attachment. MTSL = CC1(C)C=C(CS*)C(C)(C)N1[O]

B1: FOXO4-CR3 labelled with MTSL at C481 (domain or fragment, UniProt P98177 469-505, looked up)
chain: DLDLDMYMENLEC(MTSL)DMDNIISDLMDEGEGLDFNFEPDP
B2: CBP-KIX MLLmut (I660A and L664A) (domain or fragment)
chain: not shown
B3: FOXO4-CR3 M491A (domain or fragment, UniProt P98177 469-505, looked up)
chain: DLDLDMYMENLECDMDNIISDLADEGEGLDFNFEPDP
B4: FOXO4-CR3 (conserved region 3, transactivation domain of FOXO4, aa 469–505) (domain or fragment, UniProt P98177 469-505, looked up)
chain: B3 chain with A23M
B5: CBP-KIX c-Mybmut (Y650A, A654Q, and Y658A) (domain or fragment)
chain: not shown

Legend:
[1] = biological target: B5; assay: paramagnetic relaxation enhancement
[2] = biological target: B4; assay: ITC
[3] = biological target: B5; assay: NMR titration
[4] = biological target: B2; assay: ITC
[5] = biological target: B5; assay: ITC
[6] = biological target: KIX domain of CBP (CBP-KIX, aa 586–672) (UniProt P45481 586-672); assay: ITC
Sequence of KIX domain of CBP (CBP-KIX, aa 586–672) (P45481 586-672): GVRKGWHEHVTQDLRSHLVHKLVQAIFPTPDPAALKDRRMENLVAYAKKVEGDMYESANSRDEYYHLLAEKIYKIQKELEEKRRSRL

Binder: B1
- binding result [1]: binds

Binder: B2
- dH [2]: -4.58 kcal/mol

Binder: B3
- binding result [3]: binds

Binder: B4
- Kd [4]: 2760 nM
- Kd [5]: 1200 nM
- Kd [6]: 3350 ± 140 nM

Binder: B5
- dH [2]: -1.43 kcal/mol
